The series has as its system Escherichia coli TOP10. Put plainly: shrunken log2 fold change of peptide-encoding DNA abundance (4.5 h post-induction vs induction); higher = less antimicrobial activity (less host growth inhibition). Particulars: time post-induction: 4.5 h; library: site-saturation at positions 5, 18, 19, 20.
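Also: peptides expressed intracellularly from a pBAD plasmid library in pooled LB shake-flask culture, induced with 0.3% L-arabinose, DNA abundance read by NGS, three biological replicates, DESeq2 with apeglm shrinkage.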

Consider RRIRKRPPRLPRPRPRPSMPPRP, for which the “shrunken log2 fold change” value is 0.0159.
The value for RRIRRRPPRLPRPRPRPVGTPRP was 0.018.
In the case of RRIRSRPPRLPRPRPRPLQPPRP, the “shrunken log2 fold change” value is 0.474.
Regarding RRIRHRPPRLPRPRPRPDSIPRP, the “shrunken log2 fold change” value was -0.0212.
As to RRIRKRPPRLPRPRPRPKAPPRP, the “shrunken log2 fold change” value was 0.62.
Regarding RRIRFRPPRLPRPRPRPGNAPRP, the “shrunken log2 fold change” value is 0.0998.
For the sequence RRIRARPPRLPRPRPRPDWRPRP, the “shrunken log2 fold change” value turned out to be 0.146.
In the case of RRIRRRPPRLPRPRPRPWRDPRP, the “shrunken log2 fold change” value was -0.0485.
Take RRIRDRPPRLPRPRPRPFIMPRP: the “shrunken log2 fold change” value is -0.147.
In the case of RRIRERPPRLPRPRPRPISDPRP, the “shrunken log2 fold change” value is 0.00346.
With RRIRMRPPRLPRPRPRPGDVPRP, the “shrunken log2 fold change” value stood at 0.333.
Regarding RRIRARPPRLPRPRPRPEALPRP, the “shrunken log2 fold change” value is 1.71.
The value for RRIRSRPPRLPRPRPRPEYQPRP was 0.0227; that for RRIRQRPPRLPRPRPRPFEQPRP was 0.106; that for RRIRERPPRLPRPRPRPDDIPRP was -0.793.
As to RRIRVRPPRLPRPRPRPRMPPRP, the “shrunken log2 fold change” value is 0.278.
For RRIRERPPRLPRPRPRPFSCPRP, the “shrunken log2 fold change” value stood at 0.0263.
On to RRIRWRPPRLPRPRPRPHSVPRP, for which the “shrunken log2 fold change” value came to 0.0489.
In the case of RRIRWRPPRLPRPRPRPPIPPRP, the “shrunken log2 fold change” value was found to be 0.0875.
Consider RRIRDRPPRLPRPRPRPQGRPRP, for which the “shrunken log2 fold change” value is -0.0642.
Regarding RRIRVRPPRLPRPRPRPVQCPRP, the “shrunken log2 fold change” value is -0.0156.
On to RRIRKRPPRLPRPRPRPPDTPRP, for which the “shrunken log2 fold change” value was found to be 0.896.
For RRIRLRPPRLPRPRPRPEFTPRP, the “shrunken log2 fold change” value is -0.0622.
As for RRIRPRPPRLPRPRPRPAHGPRP, the “shrunken log2 fold change” value was 0.708.
For RRIRGRPPRLPRPRPRPCQHPRP, the “shrunken log2 fold change” value was -0.153.
For the sequence RRIRERPPRLPRPRPRPNFQPRP, the “shrunken log2 fold change” value was 0.0442.
Regarding RRIRRRPPRLPRPRPRPYTYPRP, the “shrunken log2 fold change” value turned out to be 0.0668.
Consider RRIRMRPPRLPRPRPRPPQVPRP, for which the “shrunken log2 fold change” value was 0.995.
Take RRIRDRPPRLPRPRPRPFNKPRP: the “shrunken log2 fold change” value is -1.45.
Regarding RRIRRRPPRLPRPRPRPHGEPRP, the “shrunken log2 fold change” value was determined as 0.0136.
For the sequence RRIRMRPPRLPRPRPRPSATPRP, the “shrunken log2 fold change” value turned out to be 3.21.
As to RRIRHRPPRLPRPRPRPSRAPRP, the “shrunken log2 fold change” value is 0.373.
As for RRIRARPPRLPRPRPRPILCPRP, the “shrunken log2 fold change” value worked out at 0.165.
On to RRIRLRPPRLPRPRPRPCGMPRP, for which the “shrunken log2 fold change” value is -0.0649.
The value for RRIRCRPPRLPRPRPRPFAQPRP was 0.00363.
On to RRIRHRPPRLPRPRPRPCWYPRP, for which the “shrunken log2 fold change” value was -0.0677.
Next, RRIRFRPPRLPRPRPRPGFDPRP: 0.0857; RRIRLRPPRLPRPRPRPQPVPRP: 0.0205; RRIRQRPPRLPRPRPRPPHLPRP: 0.205.
As for RRIRLRPPRLPRPRPRPDPNPRP, the “shrunken log2 fold change” value worked out at 0.168.
Consider RRIRARPPRLPRPRPRPVDLPRP, for which the “shrunken log2 fold change” value was found to be 0.174.
RRIRRRPPRLPRPRPRPVMNPRP: the “shrunken log2 fold change” value was determined as 0.0331.
Consider RRIRTRPPRLPRPRPRPMCIPRP, for which the “shrunken log2 fold change” value is -0.649.
In the case of RRIRWRPPRLPRPRPRPPFRPRP, the “shrunken log2 fold change” value came out at 0.632.
RRIRYRPPRLPRPRPRPCMHPRP: the “shrunken log2 fold change” value is -0.351.
With RRIRYRPPRLPRPRPRPKTWPRP, the “shrunken log2 fold change” value was -0.132.
For RRIRIRPPRLPRPRPRPATWPRP, the “shrunken log2 fold change” value is -0.273.
Take RRIRNRPPRLPRPRPRPQPEPRP: the “shrunken log2 fold change” value is 0.0878.
Regarding RRIRFRPPRLPRPRPRPEFDPRP, the “shrunken log2 fold change” value was -0.193.
The value for RRIRKRPPRLPRPRPRPQLEPRP was 0.327; that for RRIRPRPPRLPRPRPRPHCCPRP was -0.181; that for RRIRPRPPRLPRPRPRPTMYPRP was 0.125.
On to RRIRRRPPRLPRPRPRPLCPPRP, for which the “shrunken log2 fold change” value is 1.21.
On to RRIRFRPPRLPRPRPRPTQRPRP, for which the “shrunken log2 fold change” value amounted to 0.98.
With RRIRERPPRLPRPRPRPVNPPRP, the “shrunken log2 fold change” value was -0.0961.
In the case of RRIRARPPRLPRPRPRPTPFPRP, the “shrunken log2 fold change” value came out at 0.609.
As to RRIRGRPPRLPRPRPRPLSFPRP, the “shrunken log2 fold change” value turned out to be 0.121.
RRIRRRPPRLPRPRPRPKPAPRP: the “shrunken log2 fold change” value came out at 0.347.
With RRIRCRPPRLPRPRPRPMIRPRP, the “shrunken log2 fold change” value is -0.0688.
Turning to RRIRSRPPRLPRPRPRPKNDPRP, the “shrunken log2 fold change” value was -0.372.
As for RRIRVRPPRLPRPRPRPTAYPRP, the “shrunken log2 fold change” value is -0.094.
As for RRIRQRPPRLPRPRPRPRHSPRP, the “shrunken log2 fold change” value was -0.185.
For the sequence RRIRFRPPRLPRPRPRPECSPRP, the “shrunken log2 fold change” value was found to be 0.411.
In the case of RRIRLRPPRLPRPRPRPELLPRP, the “shrunken log2 fold change” value was determined as 0.335.
For RRIRMRPPRLPRPRPRPRKKPRP, the “shrunken log2 fold change” value was found to be 1.43.
Next, RRIRRRPPRLPRPRPRPKLFPRP: 0.37; RRIRYRPPRLPRPRPRPKSMPRP: -0.584; RRIRVRPPRLPRPRPRPTANPRP: 0.221.
In the case of RRIRKRPPRLPRPRPRPADWPRP, the “shrunken log2 fold change” value turned out to be 0.666.
Regarding RRIRIRPPRLPRPRPRPWSAPRP, the “shrunken log2 fold change” value was -0.649.
RRIRSRPPRLPRPRPRPRSIPRP: the “shrunken log2 fold change” value was -0.0602.
Turning to RRIRARPPRLPRPRPRPCRPPRP, the “shrunken log2 fold change” value was -0.153.
RRIRHRPPRLPRPRPRPWVAPRP: the “shrunken log2 fold change” value is -0.0296.
Next, RRIRERPPRLPRPRPRPHQLPRP: 0.0377.
As to RRIRRRPPRLPRPRPRPMNLPRP, the “shrunken log2 fold change” value is 0.0545.
As for RRIRQRPPRLPRPRPRPPWYPRP, the “shrunken log2 fold change” value was -0.226.
For the sequence RRIRNRPPRLPRPRPRPVSSPRP, the “shrunken log2 fold change” value was -0.00623.
As to RRIRWRPPRLPRPRPRPRKTPRP, the “shrunken log2 fold change” value was -0.0389.
Consider RRIRERPPRLPRPRPRPRNAPRP, for which the “shrunken log2 fold change” value amounted to 0.105.
Consider RRIRHRPPRLPRPRPRPVCGPRP, for which the “shrunken log2 fold change” value worked out at 0.137.
Consider RRIRPRPPRLPRPRPRPSCFPRP, for which the “shrunken log2 fold change” value was -0.193.
As to RRIRHRPPRLPRPRPRPRWWPRP, the “shrunken log2 fold change” value was found to be 0.00789.
With RRIRRRPPRLPRPRPRPTMDPRP, the “shrunken log2 fold change” value was determined as 0.147.
Next, RRIRKRPPRLPRPRPRPNQDPRP: -0.184.
For RRIRFRPPRLPRPRPRPHFAPRP, the “shrunken log2 fold change” value was 0.0808.
Regarding RRIRERPPRLPRPRPRPEVYPRP, the “shrunken log2 fold change” value was -0.0514.
Turning to RRIRDRPPRLPRPRPRPDLGPRP, the “shrunken log2 fold change” value is 0.829.
With RRIRRRPPRLPRPRPRPNFRPRP, the “shrunken log2 fold change” value worked out at 0.0627.
For the sequence RRIRLRPPRLPRPRPRPEIDPRP, the “shrunken log2 fold change” value was -0.0103.
Regarding RRIRCRPPRLPRPRPRPFHQPRP, the “shrunken log2 fold change” value is -0.429.
The value for RRIRSRPPRLPRPRPRPIRRPRP was 0.011.
